# Measurements taken from paper PMC11078644, “Nesprin-2 is a novel scaffold protein for telethonin and FHL-2 in the cardiomyocyte sarcomere” (The Journal of Biological Chemistry, 2024).
# B1: HA-tagged telethonin WT, purified recombinant protein, without PKD pre-treatment [not stated] / GST-nesprin-2 SR51-53 (amino acids 6018-6354) [human] (parent)
# chain 1: MATSELSCEVSEENCERREAFWAEWKDLTLSTRPEEGCSLHEEDTQRHETYHQQGQCQVLVQRSPWLMMRMGILGRGLQEYQLPYQRVLPLPIFTPAKMGATKEEREDTPIQLQELLALETALGGQCVDRQEVAEITKQLPPVVPVSKPGALRRSLSRSMSQEAQRG
# chain 2: KETFAFIQQLDKNMSNLRTWLARIESELSKPVVYDVCDDQEIQKRLAEQQDLQRDIEQHSAGVESVFNICDVLLHDSDACANETECDSIQQTTRSLDRRWRNICAMSMERRMKIEETWRLWQKFLDDYSRFEDWLKSAERTAACPNSSEVLYTSAKEELKRFEAFQRQIHERLTQLELINKQYRRLARENRTDTASRLKQMVHEGNQRWDNLQRRVTAVLRRLRHFTNQREEFEGTRESILVWLTEMDLQLTNVEHFSESDADDKMRQLNGFQQEITLNTNKIDQLIVFGEQLIQKSEPLDAVLIEDELEELHRYCQEVFGRVSRFHRRLTSCTPGL
# Variants of: B1
# Test: GST pull-down, densitometry
# Details: with GST-nesprin-2 SR51-53 (amino acids 6018-6354) [human]; without PKD pre-treatment (P-); n = 5; parent: 1; read off a plot
row,ratio to parent,Variant
1,1.1,chain 1 MATSELSCEVSEENCERREAFWAEWKDLTLSTRPEEGCSLHEEDTQRHETYHQQGQCQVLVQRSPWLMMRMGILGRGLQEYQLPYQRVLPLPIFTPAKMGATKEEREDTPIQLQELLALETALGGQCVDRQEVAEITKQLPPVVPVSKPGALRRSLARSMAQEAQRG [chain 1 S157A S161A]
